{"source": "paper PMC5023282", "about": "“A rapid fluorometric assay for the S-malonyltransacylase FabD and other sulfhydryl utilizing enzymes” (Journal of Biological Methods, 2016)", "substrate": "CC(=O)SCCNC(=O)CCNC(=O)[C@H](O)C(C)(C)COP(=O)(O)OP(=O)(O)OC[C@H]1O[C@@H](n2cnc3c(N)ncnc32)[C@H](O)[C@@H]1OP(=O)(O)O", "test": "CPM fluorescence detection of released CoA-SH, initial rates", "format": "biochemical, Escherichia coli", "settings": "malonyl-ACP 80 µM (about 40% pure; table note 75 µM), 20 mM phosphate, 50 mM KCl, 1 mg/ml BSA, pH 7.0, 30°C", "excerpt": "CPM fluorescence detection of released CoA-SH, initial rates on FabH (β-ketoacyl-ACP synthase III; keto-acylsynthase III)"}
{"protein": "FabH (β-ketoacyl-ACP synthase III; keto-acylsynthase III) (Escherichia coli K-12) (protein, purified by anion exchange, blue sepharose and S200 columns, as described previously; no tag mentioned) MYTKIIGTGSYLPEQVRTNADLEKMVDTSDEWIVTRTGIRERHIAAPNETVSTMGFEAATRAIEMAGIEKDQIGLIVVATTSATHAFPSAACQIQSMLGIKGCPAFDVAAACAGFTYALSVADQYVKSGAVKYALVVGSDVLARTCDPTDRGTIIIFGDGAGAAVLAASEEPGIISTHLHADGSYGELLTLPNADRVNPENSIHLTMAGNEVFKVAVTELAHIVDETLAANNLDRSQLDWLVPHQANLRIISATAKKLGMSMDNVVVTLDRHGNTSAASVPCALDEAVRDGRIKPGQLVLLEAFGGGFTWGSALVRF", "values": [{"measurement": "Km", "result": "60 ± 20", "unit": "µM"}]}
